Source: PMC9352680, “A comprehensive thermodynamic model for RNA binding by the Saccharomyces cerevisiae Pumilio protein PUF4”
Numbering of substitutions follows the chain as printed. Names may count otherwise.

T1: PUF4 RNA-binding domain (Saccharomyces cerevisiae, UniProt P25339 537-888)
T1 sequence: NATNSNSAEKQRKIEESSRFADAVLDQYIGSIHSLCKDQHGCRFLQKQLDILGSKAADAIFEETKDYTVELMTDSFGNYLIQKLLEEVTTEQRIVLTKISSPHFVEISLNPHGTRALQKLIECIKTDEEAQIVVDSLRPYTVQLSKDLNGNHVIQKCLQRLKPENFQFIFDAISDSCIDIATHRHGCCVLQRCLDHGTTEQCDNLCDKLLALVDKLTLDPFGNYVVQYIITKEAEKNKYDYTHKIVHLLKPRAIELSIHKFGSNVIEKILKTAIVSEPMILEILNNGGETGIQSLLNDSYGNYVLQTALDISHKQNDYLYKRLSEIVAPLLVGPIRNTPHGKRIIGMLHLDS

B1: Ia_S2_P4E.1_K4.1_C4.1_H4.1_A4.1_[T7G]_F4.1_T4.1 (ssRNA)
RNA: UUUGAUUAAUAUGAUAUCGUUCUUUCUUGUAUAGUAUUCUUUCUCGAUAUCAUAUUAAUCUUU
B2: Ia_S2_P4E.1_K4.1_C4.1_H4.1_A4.1_[T7A]_F4.1_T4.1 (ssRNA)
RNA: B1 RNA with G34A
B3: Ib_S2_P5E.1_K5.1_C5.1_H5.1_A5.1_F5.1_[T8A]_[A10C]_T5.1 (ssRNA)
RNA: UUUGAUUAAUAUGAUAUCGUUCUUUCUUGUAUUAAUCUUCUUUCUCGAUAUCAUAUUAAUCUUU
B4: Ic_S2_P5E.1_K5.1_C5.1_H5.1_A5.1_[A7C]_F5.1_[T9A]_T5.1 (ssRNA)
RNA: B3 RNA with A34C, A35U, U36A, C37A
B5: Ib_S2_P5E.1_K5.1_C5.1_H5.1_[T1A]_A5.1_F5.1_[T9C]_T5.1 (ssRNA)
RNA: B3 RNA with U28A, A35U, U36C, C37A
B6: Ib_S2_P5E.1_K5.1_C5.1_H5.1_A5.1_[T5G]_F5.1_[T8A]_T5.1 (ssRNA)
RNA: B3 RNA with U32G, C37A
B7: Ib_S2_P5E.1_K5.1_C5.1_H5.1_[G2A]_A5.1_F5.1_[T9C]_T5.1 (ssRNA)
RNA: B3 RNA with G29A, A35U, U36C, C37A
B8: Ib_S2_P5E.1_K5.1_C5.1_H5.1_A5.1_F5.1_[T9G]_[A10T]_T5.1 (ssRNA)
RNA: B3 RNA with A35U, U36G, C37U
B9: Ib_S2_P5E.1_K5.1_C5.1_H5.1_[A4G]_A5.1_F5.1_[A10C]_T5.1 (ssRNA)
RNA: B3 RNA with A31G, A35U
B10: Ib_S2_P5E.1_K5.1_C5.1_H5.1_A5.1_[A7T]_F5.1_[T8A]_T5.1 (ssRNA)
RNA: B3 RNA with A34U, C37A
B11: Ib_S2_P5E.1_K5.1_C5.1_H5.1_A5.1_[T6C]_F5.1_[T8C]_T5.1 (ssRNA)
RNA: B3 RNA with U33C, A35C, C37A
B12: Ib_S2_P5E.1_K5.1_C5.1_H5.1_[G2A]_A5.1_F5.1_[A10G]_T5.1 (ssRNA)
RNA: B3 RNA with G29A, A35U, C37G
B13: Ib_S2_P5E.1_K5.1_C5.1_H5.1_A5.1_[A7G]_F5.1_[T9A]_T5.1 (ssRNA)
RNA: B3 RNA with A34G, A35U, U36A, C37A
B14: Ib_S2_P5E.1_K5.1_C5.1_H5.1_A5.1_F5.1_[T9A]_[A10T]_T5.1 (ssRNA)
RNA: B3 RNA with A35U, U36A, C37U
B15: Ib_S2_P5E.1_K5.1_C5.1_H5.1_[T3C]_A5.1_F5.1_[A10T]_T5.1 (ssRNA)
RNA: B3 RNA with U30C, A35U, C37U
B16: Ib_S2_P5E.1_K5.1_C5.1_H5.1_A5.1_F5.1_[T9C]_[A10C]_T5.1 (ssRNA)
RNA: B3 RNA with A35U, U36C
B17: Ib_S2_P5E.1_K5.1_C5.1_H5.1_[G2C]_A5.1_F5.1_[A10G]_T5.1 (ssRNA)
RNA: B3 RNA with G29C, A35U, C37G
B18: Ib_S2_P5E.1_K5.1_C5.1_H5.1_[A4T]_A5.1_F5.1_[T8A]_T5.1 (ssRNA)
RNA: B3 RNA with A31U, C37A
B19: Ib_S2_P5E.1_K5.1_C5.1_H5.1_A5.1_[T5A]_F5.1_[T8C]_T5.1 (ssRNA)
RNA: B3 RNA with U32A, A35C, C37A
B20: Ib_S2_P5E.1_K5.1_C5.1_H5.1_[A4C]_A5.1_F5.1_[T8C]_T5.1 (ssRNA)
RNA: B3 RNA with A31C, A35C, C37A
B21: Ib_S2_P5E.1_K5.1_C5.1_H5.1_[G2A]_A5.1_F5.1_[T8G]_T5.1 (ssRNA)
RNA: B3 RNA with G29A, A35G, C37A
B22: Ib_S2_P5E.1_K5.1_C5.1_H5.1_[G2A]_A5.1_F5.1_[A10T]_T5.1 (ssRNA)
RNA: B3 RNA with G29A, A35U, C37U
B23: Ib_S2_P5E.1_K5.1_C5.1_H5.1_A5.1_[T5C]_F5.1_[T8C]_T5.1 (ssRNA)
RNA: B3 RNA with U32C, A35C, C37A
B24: Ib_S2_P5E.1_K5.1_C5.1_H5.1_[G2T]_A5.1_F5.1_[A10C]_T5.1 (ssRNA)
RNA: B3 RNA with G29U, A35U
B25: Ib_S2_P5E.1_K5.1_C5.1_H5.1_A5.1_F5.1_[T9A]_[A10C]_T5.1 (ssRNA)
RNA: B3 RNA with A35U, U36A
B26: Ib_S2_P5E.1_K5.1_C5.1_H5.1_[T1C]_A5.1_F5.1_[A10C]_T5.1 (ssRNA)
RNA: B3 RNA with U28C, A35U
B27: Ib_S2_P5E.1_K5.1_C5.1_H5.1_[A4T]_A5.1_F5.1_[T8C]_T5.1 (ssRNA)
RNA: B3 RNA with A31U, A35C, C37A
B28: Ic_S2_P5E.1_K5.1_C5.1_H5.1_A5.1_[A7G]_F5.1_[T8G]_T5.1 (ssRNA)
RNA: B3 RNA with A34G, A35G, C37A
B29: Ib_S2_P5E.1_K5.1_C5.1_H5.1_[A4T]_A5.1_F5.1_[T9C]_T5.1 (ssRNA)
RNA: B3 RNA with A31U, A35U, U36C, C37A
B30: Ib_S2_P5E.1_K5.1_C5.1_H5.1_A5.1_[A7C]_F5.1_[T8A]_T5.1 (ssRNA)
RNA: B3 RNA with A34C, C37A
B31: Ib_S2_P5E.1_K5.1_C5.1_H5.1_A5.1_[T5G]_F5.1_[T8C]_T5.1 (ssRNA)
RNA: B3 RNA with U32G, A35C, C37A
B32: Ib_S2_P5E.1_K5.1_C5.1_H5.1_[G2A]_A5.1_F5.1_[A10C]_T5.1 (ssRNA)
RNA: B3 RNA with G29A, A35U
B33: Ib_S2_P5E.1_K5.1_C5.1_H5.1_A5.1_[T5A]_F5.1_[T9A]_T5.1 (ssRNA)
RNA: B3 RNA with U32A, A35U, U36A, C37A
B34: Ib_S2_P5E.1_K5.1_C5.1_H5.1_[T1A]_A5.1_F5.1_[A10T]_T5.1 (ssRNA)
RNA: B3 RNA with U28A, A35U, C37U
B35: Ib_S2_P5E.1_K5.1_C5.1_H5.1_[A4C]_A5.1_F5.1_[A10C]_T5.1 (ssRNA)
RNA: B3 RNA with A31C, A35U
B36: Ib_S2_P5E.1_K5.1_C5.1_H5.1_[T3C]_A5.1_F5.1_[T8C]_T5.1 (ssRNA)
RNA: B3 RNA with U30C, A35C, C37A
B37: Ib_S2_P5E.1_K5.1_C5.1_H5.1_[T1C]_A5.1_F5.1_[A10G]_T5.1 (ssRNA)
RNA: B3 RNA with U28C, A35U, C37G
B38: Ib_S2_P5E.1_K5.1_C5.1_H5.1_A5.1_[T5G]_F5.1_[T9C]_T5.1 (ssRNA)
RNA: B3 RNA with U32G, A35U, U36C, C37A
B39: Ib_S2_P5E.1_K5.1_C5.1_H5.1_A5.1_[T6A]_F5.1_[T8A]_T5.1 (ssRNA)
RNA: B3 RNA with U33A, C37A
B40: Ic_S2_P5E.1_K5.1_C5.1_H5.1_A5.1_[T6C]_F5.1_[T9A]_T5.1 (ssRNA)
RNA: B3 RNA with U33C, A35U, U36A, C37A
B41: Ib_S2_P5E.1_K5.1_C5.1_H5.1_[T3C]_A5.1_F5.1_[T8A]_T5.1 (ssRNA)
RNA: B3 RNA with U30C, C37A
B42: Ib_S2_P5E.1_K5.1_C5.1_H5.1_A5.1_[T6A]_F5.1_[T8C]_T5.1 (ssRNA)
RNA: B3 RNA with U33A, A35C, C37A
B43: Ia_S2_P5E.1_K5.1_C5.1_H5.1_A5.1_F5.1_[T8C]_T5.1 (ssRNA)
RNA: B3 RNA with A35C, C37A
B44: Ib_S2_P5E.1_K5.1_C5.1_H5.1_[G2C]_A5.1_F5.1_[T9A]_T5.1 (ssRNA)
RNA: B3 RNA with G29C, A35U, U36A, C37A
B45: Ib_S2_P5E.1_K5.1_C5.1_H5.1_A5.1_[T6A]_F5.1_[T9A]_T5.1 (ssRNA)
RNA: B3 RNA with U33A, A35U, U36A, C37A
B46: Ib_S2_P5E.1_K5.1_C5.1_H5.1_A5.1_[A7T]_F5.1_[T8C]_T5.1 (ssRNA)
RNA: B3 RNA with A34U, A35C, C37A
B47: Ib_S2_P5E.1_K5.1_C5.1_H5.1_A5.1_[T5C]_F5.1_[T9C]_T5.1 (ssRNA)
RNA: B3 RNA with U32C, A35U, U36C, C37A
B48: Ia_S2_P5E.1_K5.1_C5.1_H5.1_A5.1_F5.1_[T8G]_T5.1 (ssRNA)
RNA: B3 RNA with A35G, C37A
B49: Ic_S2_P5E.1_K5.1_C5.1_H5.1_A5.1_[T6A]_F5.1_[T9C]_T5.1 (ssRNA)
RNA: B3 RNA with U33A, A35U, U36C, C37A
B50: Ib_S2_P5E.1_K5.1_C5.1_H5.1_[T1A]_A5.1_F5.1_[A10C]_T5.1 (ssRNA)
RNA: B3 RNA with U28A, A35U
B51: Ib_S2_P5E.1_K5.1_C5.1_H5.1_[G2C]_A5.1_F5.1_[A10T]_T5.1 (ssRNA)
RNA: B3 RNA with G29C, A35U, C37U
B52: Ib_S2_P5E.1_K5.1_C5.1_H5.1_A5.1_F5.1_[T9A]_[A10G]_T5.1 (ssRNA)
RNA: B3 RNA with A35U, U36A, C37G
B53: Ib_S2_P5E.1_K5.1_C5.1_H5.1_[T3C]_A5.1_F5.1_[T9A]_T5.1 (ssRNA)
RNA: B3 RNA with U30C, A35U, U36A, C37A
B54: Ib_S2_P5E.1_K5.1_C5.1_H5.1_A5.1_[T5C]_F5.1_[T8A]_T5.1 (ssRNA)
RNA: B3 RNA with U32C, C37A
B55: Ib_S2_P5E.1_K5.1_C5.1_H5.1_A5.1_[T5G]_F5.1_[T9A]_T5.1 (ssRNA)
RNA: B3 RNA with U32G, A35U, U36A, C37A
B56: Ia_S2_P5E.1_K5.1_C5.1_H5.1_A5.1_F5.1_[T8A]_T5.1 (ssRNA)
RNA: B3 RNA with C37A
B57: Ib_S2_P5E.1_K5.1_C5.1_H5.1_[A4C]_A5.1_F5.1_[A10T]_T5.1 (ssRNA)
RNA: B3 RNA with A31C, A35U, C37U
B58: Ic_S2_P5E.1_K5.1_C5.1_H5.1_A5.1_F5.1_[T9C]_[A10T]_T5.1 (ssRNA)
RNA: B3 RNA with A35U, U36C, C37U

Each binder was assayed against T1, PUF4 RNA-binding domain (assay: Mg; RNA-MaP; 20 mM Na-HEPES pH 7.4, 30 mM KOAc, 0.75 mM MgCl2, 0.1% Tween-20, 5% glycerol, 0.1 mg/mL BSA, 2 mM DTT; 25 C; 0.0125-409.6 nM protein). Conditions: tags: N-His6-TEV cleaved; C-SNAP kept, Cy3B-labelled; label: tethered on chip by stalled RNA polymerase.

Row | Binder | Kd [nM]
1 | B1 | 1.05
2 | B2 | 0.749
3 | B3 | 181
4 | B4 | 2.31
5 | B5 | > 2300
6 | B6 | 31.4
7 | B7 | 429
8 | B8 | 3.65
9 | B9 | 106
10 | B10 | 3.83
11 | B11 | 3.8
12 | B12 | 420
13 | B13 | 10.6
14 | B14 | 0.947
15 | B15 | 2020
16 | B16 | 19.4
17 | B17 | > 2300
18 | B18 | 27.9
19 | B19 | 7.72
20 | B20 | 39.2

Row | Binder | Kd [nM]
21 | B21 | 695
22 | B22 | 137
23 | B23 | 2.86
24 | B24 | > 2300
25 | B25 | 7.25
26 | B26 | 2010
27 | B27 | 25
28 | B28 | 62.8
29 | B29 | 1480
30 | B30 | 8.24
31 | B31 | 12.9
32 | B32 | 294
33 | B33 | 2.52
34 | B34 | > 2300
35 | B35 | 572
36 | B36 | 562
37 | B37 | 1750
38 | B38 | 104
39 | B39 | 5.15
40 | B40 | 0.834

Row | Binder | Kd [nM]
41 | B41 | 1260
42 | B42 | 5.31
43 | B43 | 2.99
44 | B44 | 1690
45 | B45 | 1.12
46 | B46 | 3.48
47 | B47 | 16.9
48 | B48 | 26.8
49 | B49 | 34
50 | B50 | > 2300
51 | B51 | 1700
52 | B52 | 3.11
53 | B53 | 608
54 | B54 | 4.42
55 | B55 | 5.43
56 | B56 | 6.54
57 | B57 | 180
58 | B58 | 17.6
